Literature values in patent US20050191360A1, “Particles for inhalation having rapid release properties” (Advanced Inhalation Research, Inc., priority 2004, published 2005).

Conditions: rat, in vivo

Substance: PTH34: parathyroid hormone fragment given as dry powder formulation via intratracheal delivery (Patton et al.)
- time at which the peak PTH level was reached: about 15 minutes
